Test results taken from paper PMC8586334.

Experiments:
[1] = target: S. cerevisiae replication protein A (RPA), wild type heterotrimer (Rfa1, Rfa2, Rfa3) (S. cerevisiae) (UniProt P22336)
[2] = target: S. cerevisiae RPA-SSL heterotrimer (Rfa1-F11S, I14S, F15L; Rfa2; Rfa3) (S. cerevisiae) (UniProt P22336)
Chain of S. cerevisiae RPA-SSL heterotrimer (Rfa1-F11S, I14S, F15L; Rfa2; Rfa3) (S. cerevisiae) (P22336 whole entry F11S/I14S/F15L, chain 1 of 3): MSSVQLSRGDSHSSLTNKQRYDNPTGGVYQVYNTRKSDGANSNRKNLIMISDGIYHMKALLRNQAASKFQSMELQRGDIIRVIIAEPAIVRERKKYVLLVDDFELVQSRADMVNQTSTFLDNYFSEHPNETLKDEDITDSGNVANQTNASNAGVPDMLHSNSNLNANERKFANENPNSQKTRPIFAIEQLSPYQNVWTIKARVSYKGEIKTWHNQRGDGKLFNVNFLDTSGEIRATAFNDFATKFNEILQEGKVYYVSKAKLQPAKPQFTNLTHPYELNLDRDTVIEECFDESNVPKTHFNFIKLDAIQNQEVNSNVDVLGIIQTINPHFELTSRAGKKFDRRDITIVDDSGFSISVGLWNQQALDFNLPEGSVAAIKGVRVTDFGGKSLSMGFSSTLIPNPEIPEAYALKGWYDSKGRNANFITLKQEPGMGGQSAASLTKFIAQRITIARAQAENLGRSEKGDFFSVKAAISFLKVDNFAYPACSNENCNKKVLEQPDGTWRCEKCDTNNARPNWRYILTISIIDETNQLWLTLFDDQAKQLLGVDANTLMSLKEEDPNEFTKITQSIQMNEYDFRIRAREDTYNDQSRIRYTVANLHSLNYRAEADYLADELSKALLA
Chain of S. cerevisiae RPA-SSL heterotrimer (Rfa1-F11S, I14S, F15L; Rfa2; Rfa3) (S. cerevisiae) (P26754 whole entry, chain 2 of 3, further chain): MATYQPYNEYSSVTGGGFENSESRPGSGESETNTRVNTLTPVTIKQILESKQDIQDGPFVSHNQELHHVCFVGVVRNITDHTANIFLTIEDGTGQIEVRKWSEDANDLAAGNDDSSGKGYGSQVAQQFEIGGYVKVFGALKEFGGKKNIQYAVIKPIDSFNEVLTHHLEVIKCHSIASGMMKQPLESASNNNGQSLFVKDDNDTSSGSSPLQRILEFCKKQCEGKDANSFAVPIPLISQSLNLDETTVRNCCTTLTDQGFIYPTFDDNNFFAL
Chain of S. cerevisiae RPA-SSL heterotrimer (Rfa1-F11S, I14S, F15L; Rfa2; Rfa3) (S. cerevisiae) (P26755 whole entry, chain 3 of 3, further chain): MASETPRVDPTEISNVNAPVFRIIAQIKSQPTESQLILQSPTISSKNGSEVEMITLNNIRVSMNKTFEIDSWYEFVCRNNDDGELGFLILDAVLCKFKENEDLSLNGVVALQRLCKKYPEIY

Chain of S. cerevisiae replication protein A (RPA), wild type heterotrimer (Rfa1, Rfa2, Rfa3) (S. cerevisiae) (P22336 whole entry, chain 1 of 3): as the sequence (P22336 whole entry F11S/I14S/F15L, chain 1 of 3) above, with S11F, S14I, L15F counted along it
Chain of S. cerevisiae replication protein A (RPA), wild type heterotrimer (Rfa1, Rfa2, Rfa3) (S. cerevisiae) (P26754 whole entry, chain 2 of 3, further chain): as the sequence (P26754 whole entry, chain 2 of 3, further chain) above
Chain of S. cerevisiae replication protein A (RPA), wild type heterotrimer (Rfa1, Rfa2, Rfa3) (S. cerevisiae) (P26755 whole entry, chain 3 of 3, further chain): as the sequence (P26755 whole entry, chain 3 of 3, further chain) above

- ATPase activity (apparent kcat) of Dna2-E675A with ssDNA, stimulation by the RPA variant (48 nM) [1]: 2 fold
- ATPase activity (apparent kcat) of Dna2-E675A with ssDNA, stimulation by the RPA variant (48 nM) [2]: 2 fold
Substance: S. cerevisiae Dna2-E675A (nuclease-dead) (from UniProt P38859 1-1522) (enzyme)
